Experimental data: publication PMC10957665, “The C-terminal selenenylsulfide of extracellular/non-reduced thioredoxin reductase endows this protein with selectivity to small-molecule electrophilic reagents under oxidative conditions” (Frontiers in Molecular Biosciences, 2024)
Residue numbers refer to the chain shown, from its start.

B1: Cys73Ala mutant of hTrx1 (natural protein, human, UniProt P10599 1-105, looked up)
chain: MVKQIESKTAFQEALDAAGDKLVVVDFSATWCGPCKMIKPFFHSLSEKYSNVIFLEVDVDDCQDVASECEVKAMPTFQFFKKGQKVGEFSGANKEKLEATINELV
notes: Human cytosolic thioredoxin (hTrx1) with Cys73 replaced by Ala; also called hTrx1 mutant in which Cys73 was substituted by Ala
B2: human cytosolic thioredoxin (hTrx1) (natural protein, UniProt P10599 1-105, looked up)
chain: B1 chain with A73C
notes: Human cytosolic thioredoxin (hTrx1); freshly DTT-treated, free thiol on surface Cys73; also called human cytosolic Trx; source: purified according to a previously described method (Zhai and Zhong, 2010); incubated with DTT and dialysed before use

Tests used:
[1] = target: the molecule itself; assay: cross-linking; diamide-induced covalent (disulfide/selenenylsulfide) complex: TrxR1 or a TrxR1 mutant with a 2-fold concentration of hTrx1, or one protein alone, 10 mM diamide, 30 min at room temperature; non-reducing SDS-PAGE, Coomassie stain
[2] = target: the molecule itself; assay: cross-linking; H2O2 as thiol oxidant in place of diamide; unpublished (Zhong's observation)

| Protein | stoichiometry N [1] | stoichiometry N [2] |
| --- | --- | --- |
| B1 | 2 | – |
| B2 | – | 2 |
